The results in this text go back to patent US20120023600A1 (Novartis, published 2012).

Residue numbers refer to the chain shown, from its start.

The chains are these.
T1: biotinylated human DKK1 (human, UniProt O94907 32-266, biotinylated (sites not given))
T1 construct: also called biotinylated DKK1; human recombinant, biotinylated DKK1
T1 sequence: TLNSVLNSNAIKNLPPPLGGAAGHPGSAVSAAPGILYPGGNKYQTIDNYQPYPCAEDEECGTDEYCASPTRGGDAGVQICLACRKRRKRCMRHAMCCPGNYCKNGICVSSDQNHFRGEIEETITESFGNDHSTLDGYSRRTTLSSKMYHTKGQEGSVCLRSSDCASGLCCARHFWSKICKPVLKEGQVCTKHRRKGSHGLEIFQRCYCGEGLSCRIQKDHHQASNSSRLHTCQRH

T2: DKK1-APP (human, UniProt O94907 32-266)
T2 sequence: T1 sequence

T3: cynomolgus DKK1 (cynomolgus monkey (Macaca fascicularis), UniProt A0A7N9IE82 32-266)
T3 construct: also called cyno DKK1; monkey DKK1 (Novartis)
T3 sequence: T1 sequence with H114N, T150S, S166T

T4: mouse DKK1 (R&D Systems) (mouse, UniProt O54908 32-272)
T4 construct: Bought protein
T4 sequence (looked up): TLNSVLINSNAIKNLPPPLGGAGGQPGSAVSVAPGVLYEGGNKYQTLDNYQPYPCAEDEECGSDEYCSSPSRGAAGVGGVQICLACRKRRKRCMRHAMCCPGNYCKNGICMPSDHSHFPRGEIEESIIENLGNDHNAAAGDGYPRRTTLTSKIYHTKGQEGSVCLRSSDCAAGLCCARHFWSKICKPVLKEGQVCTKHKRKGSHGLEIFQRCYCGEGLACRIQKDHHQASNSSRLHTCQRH

T5: recombinant human DKK1 (human, UniProt O94907 32-266)
T5 construct: also called Dickkopf-1; rhDKK1
T5 sequence: T1 sequence

B1: MOR04952 (Fab, V domains shown)
VH: QVQLVESGGGLVQPGGSLRLSCAASGFTFSSYWMSWVRQAPGKGLEWVSVISSDSSSTYYADSVKGRFTISRDNSKNTLYLQMNSLRAEDTAVYYCARHGIDFDHWGQGTLVTVSS
VL: DIALTQPASVSGSPGQSITISCTGTSSDLGGYNYVSWYQQHPGKAPKLMIYDVNNRPSGVSNRFSGSKSGNTASLTISGLQAEDEADYYCQSYDSPTDSVVFGGGTKLTVLG
B2: MOR04910 (Fab, V domains shown)
VH: B1 VH with V50G, S53Y, D54S, S55G, S57N, Y59H, H99M, F103L, H105Y
VL: DIALTQPASVSGSPGQSITISCTGTSSDVGGFNYVSWYQQHPGKAPKLMIHDGSNRPSGVSNRFSGSKSGNTASLTISGLQAEDEADYYCQSWDVSPITAVFGGGTKLTVLG
notes: also called anti-DKK1 FAb MOR04910
B3: MOR04920 (Fab, V domains shown)
VH: QVQLVESGGGLVQPGGSLRLSCAASGFTFSSYWMSWVRQAPGKGLEWVSSIEHKDAGYTTWYAAGVKGRFTISRDNSKNTLYLQMNSLRAEDTAVYYCARHGIDFDHWGQGTLVTVSS
VL: B1 VL with D94A, P96G, T97N, D98T, S99K
B4: MOR04948 (Fab, V domains shown)
VH: B1 VH with V50G, S53Y, D54S, S55G, S57N, Y59H, H99M, F103L, H105Y
VL: DIALTQPASVSGSPGQSITISCTGTSSDVGGFNYVSWYQQHPGKAPKLMIHDGSNRPSGVSNRFSGSKSGNTASLTISGLQAEDEADYYCQTWDSLSFFVFGGGTKLTVLG
B5: MOR04945 (Fab, V domains shown)
VH: B1 VH
VL: B1 VL with S92T, S95Q, P96I, T97K, D98L, V100A
B6: MOR04946 (Fab, V domains shown)
VH: QVQLVESGGGLVQPGGSLRLSCAASGFTFNNYGMTWVRQAPGKGLEWVSGISGSGSYTYYADSVKGRFTISRDNSKNTLYLQMNSLRAEDTAVYYCARTIYMDYWGQGTLVTVSS
VL: DIVLTQSPATLSLSPGERATLSCRASQNLFSPYLAWYQQKPGQAPRLLIYGASNRATGVPARFSGSGSGTDFTLTISSLEPEDFAVYYCQQYLTLPLTFGQGTKVEIKR
B7: MOR04913 (Fab, V domains shown)
VH: B6 VH
VL: B6 VL with L93M, K108N
B8: MOR04947 (Fab, V domains shown)
VH: QVQLVQSGAEVKKPGESLKISCKGSGYSFTNYYIGWVRQMPGKGLEWMGIIVPGTSYTIYSPSFQGQVTISADKSISTAYLQWSSLKASDTAMYYCARGIPFRMRGFDYWGQGTLVTVSS
VL: DIVLTQPPSVSGAPGQRVTISCSGSSSNIGSSFVNWYQQLPGTAPKLLIGNNSNRPSGVPDRFSGSKSGTSASLAITGLQSEDEADYYCASFDMGSPNVVFGGGTKLTVLG
B9: MOR04470 (Fab, V domains shown)
VH: B1 VH
VL: B1 VL with D94A, P96G, T97N, D98T, S99K
notes: Fab with C-terminal FLAG and 6xHis tags

The first test addresses T1, biotinylated human DKK1. As to the kind of experiment: ELISA, biotinylated DKK1 on Neutravidin plates, Fab 1 ug/ml, anti-FLAG-AP detection. The procedure: Binding specificity of the matured Fabs in the presence of 50% human serum (HS) is determined. […] After coating of the antigen, wells are blocked with TBS/0.05% Tween (TBS-T) supplemented with 1% BSA for 1 h at room temperature. Purified Fabs described above are diluted either in TBS/4% BSA or TBS/50% HS at a final concentration of 1 μg/ml, added to the coated and blocked wells and the plates are incubated for 1 h at room temperature. For detection, an anti-FLAG alkaline phosphatase (AP)-conjugated antibody (1:5000 dilution in TBST) and the fluorogenic substrate AttoPhos (Roche) are used. After each incubation, the wells of the microtiter plates are washed with TBST five times, except after the final incubation step with the labeled secondary antibody when wells are washed three times.
The fluorescence is measured in a TECAN Spectrafluor plate reader.
On to B1, for which the “Binding activity w/50% Human serum vs 4% BSA (%)” value is 100%.

With B2, the “Binding activity w/50% Human serum vs 4% BSA (%)” value stood at 84%.

Regarding B3, the “Binding activity w/50% Human serum vs 4% BSA (%)” value is 90%.

Turning to B4, the “Binding activity w/50% Human serum vs 4% BSA (%)” value was 100%.

Take B5: the “Binding activity w/50% Human serum vs 4% BSA (%)” value worked out at 89%.

Take B6: the “Binding activity w/50% Human serum vs 4% BSA (%)” value came out at 93%.

B7: the “Binding activity w/50% Human serum vs 4% BSA (%)” value was determined as 89%.

The next test concerns the target T2, DKK1-APP. Put plainly: cell-based or functional assay.
Regarding B1, the “Luciferase reporter assay w/o Kremen; Activity in 15% Human serum (%)” value (“Luciferase reporter assay w/o Kremen … (%)” for short) is 60%.

On to B2, for which the “Luciferase reporter assay w/o Kremen … (%)” value was determined as 90%.

Take B3: the “Luciferase reporter assay w/o Kremen … (%)” value amounted to 75%.

With B4, the “Luciferase reporter assay w/o Kremen … (%)” value was 70%.

Regarding B5, the “Luciferase reporter assay w/o Kremen … (%)” value was determined as 74%.

For B6, the “Luciferase reporter assay w/o Kremen … (%)” value was 60%.

Take B7: the “Luciferase reporter assay w/o Kremen … (%)” value worked out at 88%.

For the next test, the target named is T3, cynomolgus DKK1. Put plainly: solution equilibrium titration (SET), ECL (BioVeris), Fab. Here is the method:
(§1) Electrochemiluminescence (ECL) based affinity determination in solution and data evaluation are basically performed as described by Haenel et al., 2005. […] Subsequently, the concentration of unbound Fab is quantified by ECL detection using the M-SERIES® 384 analyzer (BioVeris Europe).
(§2) Affinities are calculated according to Haenel et al., 2005 Anal Biochem 339.1:182-184.
As to B8, binding was characterised by a dissociation constant (Kd) of 0.058 nM.

Turning to B1, the dissociation constant (Kd) (as a rule, the concentration at which binding is half-saturated) is 0.058 nM.

B2 yielded a Kd of 0.037 nM.

B3 showed a Kd of 0.05 nM.

In the case of B4, binding was characterised by a dissociation constant (Kd) of 0.067 nM.

For B5, binding was characterised by a dissociation constant (Kd) of 0.08 nM.

For B6, the Kd was determined as 0.036 nM.

On to B7, for which the Kd was found to be 0.051 nM.

A further test concerns the target T4, mouse DKK1 (R&D Systems). The test is described as above. The procedure: as §1, §2
B8 had an equilibrium dissociation constant (Kd) of 0.03 nM.

B1 returned a Kd of 0.071 nM.

B2: the Kd was 0.042 nM.

B3 came in with a Kd of 0.04 nM.

B4 yielded a Kd of 0.065 nM.

B5 registered a Kd of 0.074 nM.

As to B6, binding was characterised by a dissociation constant (Kd) of 0.041 nM.

B7 registered a Kd of 0.044 nM.

A further test has as its target T5, recombinant human DKK1. The test is described as above. The procedure: as §1, §2
In the case of B8, the Kd worked out at 0.032 nM.

As for B1, the Kd was found to be 0.1 nM.

With B2, the Kd stood at 0.024 nM.

With B3, the Kd amounted to 0.053 nM.

Take B4: the Kd came out at 0.057 nM.

Regarding B5, the dissociation constant (Kd) worked out at 0.069 nM.

Consider B6, for which the Kd was 0.025 nM.

With B7, the Kd turned out to be 0.038 nM.

Another test concerns the target T3, cynomolgus DKK1. Put plainly: SPR (Biacore), DKK1 immobilised on CM5 chip, Fab as analyte. Here is the method: (§3) Using these clones, kinetic SPR analysis is performed on a. […] The Fab preparations are applied in concentration series of 16-500 nM at a flow rate of 20 μl/min. Association phase is set to 60 s and dissociation phase to 120 s.
A general note: Surface plasmon resonance follows binding to a sensor surface in real time, without labels.
Molecule B9 displayed a Kd of 1.7 nM.

The next test deals with T4, mouse DKK1 (R&D Systems). The test is described as above. The procedure:
as §3
The molecule B9 came in with a Kd of 3.6 nM.

In another test the target is T5, recombinant human DKK1. Described as above. Here is the method: as §3
Consider B9, for which the Kd was 3.2 nM.

For another test, the target named is T2, DKK1-APP. Put plainly: cell-based or functional assay. This is another data set of the same source.
As to B9, the “Luciferase reporter assay; EC50” value amounted to 58 nM.

For another test, the target named is T3, cynomolgus DKK1. Put plainly: SPR (Biacore), DKK1 immobilised on CM5 chip, Fab as analyte. This is another data set of the same source. Here is the method:
as §3
Turning to B9, the Kd came out at 1.7 nM.

A further test concerns the target T4, mouse DKK1 (R&D Systems). Described as above. This is another data set of the same source. Here is the method:
as §3
For B9, the Kd came to 3.6 nM.

The next test concerns the target T5, recombinant human DKK1. Described as above. This is another data set of the same source. The procedure: as §3
With B9, the Kd was 3.2 nM.

A further test deals with T3, cynomolgus DKK1. Described as above. The source holds these as a separate data set. The procedure: as §3
The molecule B9 had a Kd of 1.7 nM.

In the next test the target is T4, mouse DKK1 (R&D Systems). Described as above. The source holds these as a separate data set. Here is the method:
as §3
The molecule B9 came in with a dissociation constant Kd of 3.6 nM.

For the next test, the target named is T5, recombinant human DKK1. The description is as above. The source holds these as a separate data set. Here is the method:
as §3
Regarding B9, the dissociation constant Kd was 3.2 nM.

Another test concerns the target T5, recombinant human DKK1. As to the kind of experiment: cell-based or functional assay.
In the case of B8, the “TCF/LEF luc assay w/Kremen: EC50” value was found to be 1.7 nM.

As to B1, the “TCF/LEF luc assay w/Kremen: EC50” value was 0.6 nM.

On to B2, for which the “TCF/LEF luc assay w/Kremen: EC50” value came to 0.3 nM.

Regarding B3, the “TCF/LEF luc assay w/Kremen: EC50” value was 1.8 nM.

Consider B4, for which the “TCF/LEF luc assay w/Kremen: EC50” value turned out to be 0.5 nM.

On to B5, for which the “TCF/LEF luc assay w/Kremen: EC50” value was 0.5 nM.

As to B6, the “TCF/LEF luc assay w/Kremen: EC50” value came out at 0.2 nM.

On to B7, for which the “TCF/LEF luc assay w/Kremen: EC50” value is 0.5 nM.

Another test concerns the target T2, DKK1-APP. As to the kind of experiment: cell-based or functional assay. The source holds these as a separate data set.
For B9, the EC50 – broadly, the concentration needed to bring the measured effect to its halfway point – came out at 58 nM.
